# Measurements as given in article PMC11813886.
# Experiments:
# [1] = molecular target: FHR-1_(1-3)::FHR-B4-5 hybrid protein (human | mouse); assay: AUC; sedimentation velocity, 48000 rpm, protein in PBS pH 7; c(s) distributions with SEDFIT; dimer to monomers
# [2] = molecular target: FHR-B1-3::FHR-1_(4-5) hybrid protein (mouse | human); assay: as above
# FHR-B_(Del.1) (mouse) = assay: as above
# FHR-B_(Dup.1-3) (mouse) = assay: as above
# [3] = molecular target: FHR-B_(T161A,I166V) (mouse); assay: as above
# FHR-B_(Y162H) (mouse) = assay: as above
# [4] = molecular target: recombinant form of the native mouse FHR-B protein (rFHR-B) (mouse); assay: as above
# [5] = molecular target: recombinant form of the native mouse FHR-B protein (rFHR-B) (mouse); assay: AUC; sedimentation velocity after exposure to pH 2.5 or pH 10.5 and dialysis back to physiological conditions
substance,measurement,setting,value
FHR-1_(1-3)::FHR-B4-5 hybrid protein,stoichiometry N,[1],2
FHR-B1-3::FHR-1_(4-5) hybrid protein,stoichiometry N,[2],2
FHR-B_(Del.1) (domain or fragment),stoichiometry N,FHR-B_(Del.1) (mouse),2
FHR-B_(Dup.1-3),stoichiometry N,FHR-B_(Dup.1-3) (mouse),2
"FHR-B_(T161A,I166V) (natural protein)",stoichiometry N,[3],2
FHR-B_(Y162H) (natural protein),stoichiometry N,FHR-B_(Y162H) (mouse),2
recombinant form of the native mouse FHR-B protein (rFHR-B) (natural protein),stoichiometry N,[4],2
same,stoichiometry N,[5],2
